Some results are limits rather than exact numbers.

Among the targets are HLA-A*32:01; HLA-B*53:01; HLA-A*26:01; HLA-A*01:01; HLA-A*24:02; HLA-A*23:01; HLA-A*29:02; HLA-A*30:02.
Holding throughout (test): IEDB peptide-MHC binding, purified MHC/competitive/radioactivity; filed as Kd, often an IC50 or EC50 that approximates it; ≥ and ≤ were set here for values at or beyond the usual limits of such assays
Another test addresses HLA-A*02:03. Particulars: source organism: Dengue virus 4 Philippines/H241/1956.
For another test, the target named is HLA-B*44:03. Particulars: source organism: Dengue virus 2 Jamaica/1409/1983.
The target of another test is HLA-B*44:02. Particulars: source organism: Dengue virus 2 Jamaica/1409/1983.
Another test deals with HLA-A*68:01. The following applies: source organism: Triticum aestivum.
The next test has as its target HLA-A*11:01. The following applies: source organism: Triticum aestivum.
The next test deals with HLA-A*31:01. The following applies: source organism: Triticum aestivum.
For the next test, the target named is HLA-A*03:01. The following applies: source organism: Triticum aestivum.
Another test deals with HLA-A*33:01. Particulars: source organism: Triticum aestivum.
The mark [1] stands for this setting: source organism: Vaccinia virus WR.
Setting [2] is: source organism: Dengue virus 2 Jamaica/1409/1983.
Setting [3] is: source organism: Dengue virus 2 Peru/IQT2913/1996.
Setting [4] is: source organism: SARS coronavirus Tor2.
Setting [5] is: source organism: Mammarenavirus guanaritoense.
The mark [6] stands for this setting: source organism: Triticum aestivum.
Setting [7] is: source organism: Mammarenavirus lassaense.

In general, Kd refers to the free concentration of one partner at which half of the binding sites on the other are occupied at equilibrium, for simple one-to-one binding. Take QILASILSI: the dissociation constant Kd with HLA-A*32:01 (setting [1]) is 22.1 nM.

For the sequence QILLMRTTW, the Kd with HLA-A*32:01 (source organism: Dengue virus 1 Brazil/97-11/1997) came to 22 nM.

As for QPTELKYSW, the Kd with HLA-B*53:01 (setting [2]) came out at 11 nM.

As for QPTELRYSW, the Kd with HLA-B*53:01 (setting [3]) turned out to be 52.6 nM.

Turning to RHLIFSYAF, the Kd with HLA-A*32:01 (setting [1]) was 13.6 nM.

Take RTFLIDLAF: in the test with HLA-A*32:01 (setting [1]), the dissociation constant (Kd) stood at 0.48 nM.

Turning to RTFNRTHYW, the Kd in the test with HLA-A*32:01 (setting [1]) turned out to be 0.243 nM.

RTYGVNYTF: the Kd with HLA-A*32:01 (setting [1]) was 0.261 nM.

In the case of RVLFNNFKI, the dissociation constant Kd in the test with HLA-A*32:01 (setting [1]) was found to be 0.885 nM.

SQQKADWIPL: the Kd with HLA-A*32:01 (setting [2]) came to 2790 nM.

With SWFITQRNFF, the Kd with HLA-A*26:01 (setting [4]) stood at 12500 nM; with HLA-A*01:01 (setting [4]), 828 nM; with HLA-A*24:02 (setting [4]), 0.035 nM; in the test with HLA-A*23:01 (setting [4]), 0.0458 nM; with HLA-A*29:02 (setting [4]), 53.2 nM; with HLA-A*30:02 (setting [4]) it was 1030 nM.

TLYAVATTI: the Kd amounted to 356 nM in the test with HLA-A*32:01 (source organism: Dengue virus 4 Philippines/H241/1956) and 11.2 nM with HLA-A*02:03.

As for TPEGIIPSMF, in the test with HLA-B*53:01 (setting [2]), the Kd stood at 417 nM.

Regarding TTQTSALSI, in the test with HLA-A*32:01 (setting [1]), the equilibrium dissociation constant (Kd) came to 145 nM.

With TVMAFHLTT, in the test with HLA-A*32:01 (setting [3]), the Kd worked out at 19200 nM.

For the sequence VEPGQLKLNW, the Kd came to 63.2 nM with HLA-B*44:03 and 389 nM with HLA-B*44:02.

Turning to VFQAKSAFV, the Kd is not below 77900 nM with HLA-A*26:01 (setting [5]); not below 31400 nM with HLA-A*01:01 (setting [5]); 1060 nM with HLA-A*24:02 (setting [5]); 855 nM in the test with HLA-A*23:01 (setting [5]); not below 78900 nM in the test with HLA-A*29:02 (setting [5]); 1050 nM in the test with HLA-A*30:02 (setting [5]).

Turning to VFYLYLTFYF, the Kd with HLA-A*26:01 (setting [4]) came out at 621 nM; with HLA-A*01:01 (setting [4]), 566 nM; in the test with HLA-A*24:02 (setting [4]), 0.0798 nM; in the test with HLA-A*23:01 (setting [4]), 0.0611 nM; in the test with HLA-A*29:02 (setting [4]), 0.0415 nM; with HLA-A*30:02 (setting [4]) it was 12400 nM.

As to VMPLSAPTL, the Kd is not below 77900 nM with HLA-A*26:01 (setting [4]); not below 78100 nM with HLA-A*01:01 (setting [4]); 13300 nM with HLA-A*24:02 (setting [4]); 6450 nM in the test with HLA-A*23:01 (setting [4]); 7050 nM in the test with HLA-A*29:02 (setting [4]); not below 75000 nM with HLA-A*30:02 (setting [4]).

Take VSFQQPLQQY: the Kd in the test with HLA-A*26:01 (setting [6]) is not below 43000 nM; with HLA-A*68:01, not below 70200 nM; with HLA-A*01:01 (setting [6]), 38.5 nM; with HLA-A*24:02 (setting [6]) it was not below 70300 nM; with HLA-A*23:01 (setting [6]), not below 42400 nM; in the test with HLA-A*29:02 (setting [6]), 2840 nM. In addition, the Kd is 138 nM with HLA-A*11:01; 6090 nM with HLA-A*30:02 (setting [6]); not below 70000 nM with HLA-A*31:01; 2340 nM in the test with HLA-A*03:01; not below 70000 nM with HLA-A*33:01.

In the case of YFESYVRPFV, the dissociation constant (Kd) with HLA-A*26:01 (setting [7]) was not below 46100 nM; with HLA-A*01:01 (setting [7]), not below 70400 nM; in the test with HLA-A*24:02 (setting [7]), 12800 nM; with HLA-A*23:01 (setting [7]) it was 1890 nM; with HLA-A*29:02 (setting [7]), 3940 nM; with HLA-A*30:02 (setting [7]), 4250 nM.

As for YFTNDVSFL, the Kd with HLA-A*26:01 (setting [4]) was 16100 nM; in the test with HLA-A*01:01 (setting [4]), 12900 nM; with HLA-A*24:02 (setting [4]) it was not below 78100 nM; with HLA-A*23:01 (setting [4]), 18300 nM; in the test with HLA-A*29:02 (setting [4]) it was not below 75000 nM; in the test with HLA-A*30:02 (setting [4]) it was not below 96800 nM.

With YIAVNDKALY, the equilibrium dissociation constant (Kd) with HLA-A*26:01 (setting [4]) is 2600 nM; in the test with HLA-A*01:01 (setting [4]), 12.9 nM; with HLA-A*24:02 (setting [4]), not below 70300 nM; in the test with HLA-A*23:01 (setting [4]), not below 55000 nM; with HLA-A*29:02 (setting [4]) it was 8.81 nM; with HLA-A*30:02 (setting [4]), 141 nM.

With YVQRFFLRV, the Kd was not below 77900 nM with HLA-A*26:01 (setting [5]); 1020 nM with HLA-A*01:01 (setting [5]); not below 26600 nM in the test with HLA-A*24:02 (setting [5]); 4270 nM with HLA-A*23:01 (setting [5]); 767 nM with HLA-A*29:02 (setting [5]); 732 nM with HLA-A*30:02 (setting [5]).

Source of the values: the Immune Epitope Database (IEDB).
